The text below walks through data of article PMC8999790, “The Transition of Photoreceptor Guanylate Cyclase Type 1 to the Active State” (International Journal of Molecular Sciences, 2022).

What all share (format): biochemical, Homo sapiens
Substrate in data set [1]: Nc1nc2c(ncn2[C@@H]2O[C@H](COP(=O)(O)OP(=O)(O)OP(=O)(O)O)[C@@H](O)[C@H]2O)c(=O)[nH]1
The experiment in a line: cells, lysate or membranes. The settings on record: Mg-GTP, pH 7.2, 30 °C, half-maximal saturation.

Substrate in data set [2]: Nc1nc2c(ncn2[C@@H]2O[C@H](COP(=O)(O)OP(=O)(O)OP(=O)(O)O)[C@@H](O)[C@H]2O)c(=O)[nH]1
The experiment in a line: cGMP formation by HPLC in HEK293 membranes, Hill fit. The settings on record: Mg-GTP, 5 uM GCAP1, <=10 nM free Ca2+ (2 mM EGTA), pH 7.2, 30 °C, half-maximal saturation, Hill h 1.75. From the text:
cGMP formation by HPLC in HEK293 membranes, Hill fit on human GC-E + GCAP1

Substrate in data set [3]: Nc1nc2c(ncn2[C@@H]2O[C@H](COP(=O)(O)OP(=O)(O)OP(=O)(O)O)[C@@H](O)[C@H]2O)c(=O)[nH]1
Described as above. The settings on record: Mg-GTP, 5 uM GCAP2, <=10 nM free Ca2+ (2 mM EGTA), pH 7.2, 30 °C, half-maximal saturation, Hill h 1.76. The source says:
cGMP formation by HPLC in HEK293 membranes, Hill fit on human GC-E + GCAP2

Substrate in data set [4]: Nc1nc2c(ncn2[C@@H]2O[C@H](COP(=O)(O)OP(=O)(O)OP(=O)(O)O)[C@@H](O)[C@H]2O)c(=O)[nH]1
The data set is described as above. The conditions noted are these: Mg-GTP, no GCAPs, <=10 nM free Ca2+ (2 mM EGTA), pH 7.2, 30 °C, half-maximal saturation, Hill h 1.58. From the text: cGMP formation by HPLC in HEK293 membranes, Hill fit on human GC-E (no GCAPs)

[5] abbreviates: 5 uM GCAP1, <=10 nM free Ca2+ (2 mM EGTA), Hill h 1.75, apparent KM.
Setting [6] is: 5 uM GCAP2, <=10 nM free Ca2+ (2 mM EGTA), Hill h 1.76, apparent KM.
[7] abbreviates: no GCAPs, <=10 nM free Ca2+ (2 mM EGTA), Hill h 1.58, apparent KM.

B1: human GC-E + GCAP1 (Homo sapiens; V902L) (protein)
chain: AVFTVGVLGPWACDPIFSRARPDLAARLAAARLNRDPGLAGGPRFEVALLPEPCRTPGSLGAVSSALARVSGLVGPVNPAACRPAELLAEEAGIALVPWGCPWTQAEGTTAPAVTPAADALYALLRAFGWARVALVTAPQDLWVEAGRSLSTALRARGLPVASVTSMEPLDLSGAREALRKVRDGPRVTAVIMVMHSVLLGGEEQRYLLEAAEELGLTDGSLVFLPFDTIHYALSPGPEALAALANSSQLRRAHDAVLTLTRHCPSEGSVLDSLRRAQERRELPSDLNLQQVSPLFGTIYDAVFLLARGVAEARAAAGGRWVSGAAVARHIRDAQVPGFCGDLGGDEEPPFVLLDTDAAGDRLFATYMLDPARGSFLSAGTRMHFPRGGSAPGPDPSCWFDPNNICGGGLEPGLVFLGFLLVVGMGLAGAFLAHYVRHRLLHMQMVSGPNKIILTVDDITFLHPHGGTSRKVAQGSRSSLGARSMSDIRSGPSQHLDSPNIGVYEGDRVWLKKFPGDQHIAIRPATKTAFSKLQELRHENVALYLGLFLARGAEGPAALWEGNLAVVSEHCTRGSLQDLLAQREIKLDWMFKSSLLLDLIKGIRYLHHRGVAHGRLKSRNCIVDGRFVLKITDHGHGRLLEAQKVLPEPPRAEDQLWTAPELLRDPALERRGTLAGDVFSLAIIMQEVVCRSAPYAMLELTPEEVVQRVRSPPPLCRPLVSMDQAPVECILLMKQCWAEQPELRPSMDHTFDLFKNINKGRKTNIIDSMLRMLEQYSSNLEDLIRERTEELELEKQKTDRLLTQMLPPSVAEALKTGTPVEPEYFEQVTLYFSDIVGFTTISAMSEPIEVLDLLNDLYTLFDAIIGSHDVYKVETIGDAYMVASGLPQRNGQRHAAEIANMSLDILSAVGTFRMRHMPEVPVRIRIGLHSGPCVAGVVGLTMPRYCLFGDTVNTASRMESTGLPYRIHVNLSTVGILRALDSGYQVELRGRTELKGKGAEDTFWLVGRRGFNKPIPKPPDLQPGSSNHGISLQEIPPERRRKLEKARPGQFS
notes: full-length GC-E transiently expressed in HEK293, membrane suspension
The term Km denotes the substrate concentration at which the rate is half of its maximum. Usually kcat/Km stands for the second-order rate constant that governs catalysis at low substrate concentration. For B1, in data set [1] (setting [5]), the Km was 200 µM and the kcat/Km is 4000 M⁻¹ s⁻¹. In addition, in data set [2], the K0.5 worked out at 0.20 mM and the kcat/Km was 4000 M⁻¹ s⁻¹.

B2: human GC-E + GCAP2 (Homo sapiens; V902L) (protein)
chain: B1 chain
notes: as for B1
For the protein B2, in data set [1] (setting [6]), the Michaelis-Menten constant (Km) amounted to 310 µM and the kcat/Km worked out at 2200 M⁻¹ s⁻¹. In addition, in data set [3], the K0.5 amounted to 0.36 mM and the kcat/Km was 2200 M⁻¹ s⁻¹.

B3: human GC-E (no GCAPs) (Homo sapiens; V902L) (protein)
chain: B1 chain
notes: full-length GC-E transiently expressed in HEK293, membrane suspension; no GCAP added
B3: in data set [4], the K0.5 stood at 0.37 mM and the kcat/Km worked out at 2100 M⁻¹ s⁻¹. In addition, in data set [1] (setting [7]), the Km turned out to be 340 µM and the kcat/Km came out at 2100 M⁻¹ s⁻¹.
